Test [1] deals with Clostridium difficile toxin A (purified) (Clostridium difficile) (UniProt P16154). The test is described as follows: cell-based or functional assay.
Test [2] has the same target.

Experimental findings from patent publication US20240209068A1 are described below.

Sequence of Actoxumab IgA2m1 (heavy, form in doubt): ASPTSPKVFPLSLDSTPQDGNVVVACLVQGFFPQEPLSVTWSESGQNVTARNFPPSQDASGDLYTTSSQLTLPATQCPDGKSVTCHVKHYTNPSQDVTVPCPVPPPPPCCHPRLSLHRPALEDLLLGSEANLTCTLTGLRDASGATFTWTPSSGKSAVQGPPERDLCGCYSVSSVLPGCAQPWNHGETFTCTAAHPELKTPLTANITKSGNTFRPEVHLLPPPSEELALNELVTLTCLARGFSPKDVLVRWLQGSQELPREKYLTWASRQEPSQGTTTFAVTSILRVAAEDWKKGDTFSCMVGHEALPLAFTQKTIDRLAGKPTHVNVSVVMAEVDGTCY
Sequence of Actoxumab IgA2m1 (P01591 whole entry, form in doubt): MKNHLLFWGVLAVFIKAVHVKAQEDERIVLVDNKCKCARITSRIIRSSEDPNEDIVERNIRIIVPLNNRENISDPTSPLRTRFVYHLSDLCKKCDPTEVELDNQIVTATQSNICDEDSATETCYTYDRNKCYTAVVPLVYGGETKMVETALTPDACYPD

For the substance Actoxumab IgA2m1 (antibody), in test [1], the potency (IC50) of Toxin A neutralization on Vero cells relative to Actoxumab IgG; antibody from mRNA-transfected cell supernatant came out at 200 fold and the potency (IC50) of Toxin A neutralization on Vero cells relative to Actoxumab IgG; recombinant antibody protein was determined as 200 fold. In test [2], the IC50 (read off the curve); % neutralization of Toxin A on Vero cells (alamarBlue), curve 'Actoxumab IgA2m1 Protein' worked out at 0.03 µg/mL and the IC50 (read off the curve); % neutralization of Toxin A on Vero cells (alamarBlue), curve 'Actoxumab IgA2m1 mRNA' was 0.01 µg/mL.
